In US10213494B2, “Treatment of synucleinopathies” (The Brigham and Women's Hospital, Inc., priority 2007, dated 2019):
Substitutions are numbered along the chain they refer to. Numbers in names are those of the source. Square brackets hold non-standard residues; d marks the D form. Peptide text beside a SMILES is read from it. * marks the point of attachment. Sta = CC(C)C[C@H](N)[C@@H](O)CC(=O)O; Isovaleryl = CC(C)CC(=O)*

Experiments:
GBA = details: Lieberman R et al., (2007); cited from earlier work
[1] = system: α-synuclein protein (wild-type, human) in MES23.5 cells; assay: Sandwich ELISA of intracellular α-synuclein in MES23.5 cells co-transfected with wild-type human SNCA cDNA and lysosomal enzyme cDNA; format: cell-based; details: for intracellular α-synuclein level, % of vector cDNA control levels: GBA variant plasmid 5 μg per 10 cm dish + 0.5 μg SNCA cDNA, 24 hours after transfection, no prosaposin, mean+/−sem
Description: Sera from six rabbits were raised and affinity-purified at Open Biosystems, Inc. (openbiosystems.com) against recombinant, full-length human αS. Recombinant αS had been HPLC- and MS-characterized and subjected to amino acid composition and protein concentration analyses. For ELISA, 384-well MaxiSorp plates (Nunc, Inc) were coated with 50 μl/well capturing polyclonal Ab (hSA-2) diluted in coating buffer (NaHCO3 with 0.2% NaN3, pH 9.6). Following washes with PBS/0.05% Tween-20 (PBS-T), plates were blocked for 2 hours at 37° C. in blocking buffer (1.125% fish skin gelatin; PBS-T). After 4 washes, samples were loaded and incubated at 4° C. for 12 hours. Biotinylated Syn-1 mAb (as the assaying Ab) was generated using 200 μg Sulfo-NHS-LC Biotin (Pierce), diluted in blocking buffer and added to the plate for 2 hours at 37° C. Following 4 washes, ExtrAvidin phosphatase (Sigma) diluted in blocking buffer was applied for 1 hr at 37° C. Color development was carried out by using Fast-p-Nitrophenyl Phosphate (Sigma) and monitored kinetically at OD 405 nm every 5 minutes for up to 60 minutes.
To optimize a ‘DNA: LIPOFECTAMINE® 2000’ ratio with low cell toxicity, MES23.5 cells were transfected with either 0.25, 0.5 or 1 μg αS-encoding, wild-type, human SNCA cDNA plus empty vector cDNA up to a total of 5.5 μg DNA per 10 cm dish. 24 hours after transfection, cell lysates were harvested as described above. For serial dilutions of cell lysates, blocking buffer containing 0.5% lysate from vector-transfected wells was used as diluent, which was also used to create the blank and the corresponding standard curve of recombinant human αS. Saturation kinetics were examined for identification of time point(s) where standards and sample dilutions were in the log phase.
MES cells were transfected with 0.5 μg per 10 cm dish of αS-encoding SNCA cDNA-carrying plasmid, plus 5 μg per 10 cm dish of wild-type or mutant, human GBA-encoding plasmid. The GBA variants used were wild type, N370S, D409H, L444P, E235A, and E340A. These 5 GBA mutants were created by site-directed mutagenesis, using the Quickchange® kit (Stratagene), and sequence-verified. The N370S, D409H and L444P are known to occur (in the homozygous or compound heterozygous state) in Gaucher disease in the heterozygous state in Parkinson Disease patients and/or patients with dementia with Lewy bodies. The E235A and E340A mutant GBA proteins are not known to occur in people.
24 hours after transfection, MES cells were lysed as described above and all lysates were analyzed by ELISA. […] This is in contrast to the result observed in Example 5 above. The observed discrepancy can reflect the differences in total DNA transfected in the two paradigms (FIG. 2B; FIG. 2C versus FIG. 4), thereby leading to changes in the DNA:LIPOFECTAMINE® 2000 ratio, and in the role of co-expressed prosaposin (saposin C). It is therefore conceivable that wild-type GBA can have variable effects on αS levels in these MES23.5 cells, depending on the rate of αS import into lysosomes and the composition as well as activation state of more than one lysosomal enzyme.
MES23.5 cells were transfected with 0.5 μg per 10 cm dish of an αS-encoding, wild-type, human SNCA cDNA-carrying plasmid (referred to as MES-hSNCA WT cells in the Western blot shown in FIG. 6), plus either 1.25, 2.5 or 5 μg per 10 cm dish of a human Cathepsin D-encoding CTSD cDNA plasmid, which was purchased from OriGene Technologies, Inc., and was under the control of a CMV promoter. The Cathepsin D clone was fully sequence-verified after isolation and maxiprep. Each transfection arm was balanced with empty vector DNA up to a total of 5.5 μg DNA per 10 cm dish. 24 hours after transfection, cells were lysed, and the resulting lysates were analyzed by the sandwich ELISA described herein. […]

[2] = system: α-synuclein protein in MES23.5 cells; assay: Western blot of α-synuclein in co-transfected MES23.5 cells; format: cell-based, human; details: 24 hours
Description: Cells were transfected with 0, 0.25, 0.5, 1, 5, and 10 μg (per 10 cm dish) of plasmid. 24 hours later, cells were washed with Tris-buffered saline and lysed in 140 mM NaCl, 50 mM Tris-Hcl, pH 8.0, 1 mM EDTA, 0.5% Triton-X100, and 1× protease inhibitors. Lysates were centrifuged at 100,000×g for 30 min at 4° C.; the top 2/3 of supernatants were removed and frozen in siliconized tubes at −80° C. Samples were run on SDS/PAGE, using 1 mM DTT as the reducing agent. Expression of the αS protein was confirmed at 24 hours post-transfection by Western blotting, where cell lysates were probed with a monoclonal antibody against αS protein (syn-1 antibody, BD Transduction Labs).
MES23.5 cells were transfected with 0.5 μg αS-encoding SNCA cDNA per 10 cm dish plus either 1.25, 2.5 or 5 μg (low, medium, or high) GBA-encoding cDNA in the absence or presence of 5 μg of Prosaposin-encoding cDNA. All arms of the experiment were balanced up to a total of 10.5 μg cDNA per 10 cm dish using empty vector cDNA. The GBA- and Prosaposin-encoding cDNA plasmids under a CMV promoter, as well as the pCMV-XL5 empty vector were purchased from OriGene Technologies, Inc (clones had been fully sequence-verified after isolation and a maxiprep). 24 hours later, cells were lysed and probed for GBA and αS protein levels. The upper panel in of FIG. 2B3 is a representation of a Western Blot indicating expression of GBA protein in the absence and presence of co-transfected prosaposin. GBA was probed using the monoclonal antibody 8E4. GBA over-expression occurred in a slightly gene-dosage dependent way in the absence of prosaposin. In the presence of prosaposin over-expression, the GBA signal itself was decreased. […]

MES-syn cells = assay: LDH release assay of cellular integrity; format: cell-based, rodent; details: enzyme cDNA 5 μg/10 cm dish, versus control vector transfected cells
Description: To confirm that the effect of Cathepsin D on lowering of αS in MES23.5 cells was specific and was not caused by a general decrease in cellular metabolism and integrity, the MTT and LDH assays were performed on MES-syn cells that had been co-transfected with the highest amount of Cathepsin D-encoding cDNA (5 μg/10 cm dish). Lysis of cells with 0.1% Triton-X® 100 served as a positive control, representing maximal cell death.
To confirm that the effect of Cathepsin F on lowering of αS was specific and was not caused by a general decrease in cellular integrity, the LDH assay was performed on MES-syn cells that had been co-transfected with Cathepsin F-encoding CTSF cDNA (5 μg/10 cm dish). Lysis of cells with 0.1% Triton-X 100 served as a positive control for cell toxicity, promoting maximal cell death.

[3] = system: α-synuclein protein (wild-type, human) in MES23.5 cells; assay: Sandwich ELISA of intracellular α-synuclein in MES23.5 cells co-transfected with wild-type human SNCA cDNA and lysosomal enzyme cDNA; format: cell-based; details: cathepsin F cDNA 5 μg/10 cm dish, 24 hours, n=3

OC[C@H]1CNC[C@@H](O)[C@@H]1O [isofagomine]
effect on GBA activity (GBA): increase GBA activity in mice and humans

CC(C)CC(=O)N[C@H](C(=O)N[C@H](C(=O)N[C@@H](CC(C)C)[C@@H](O)CC(=O)N[C@@H](C)C(=O)N[C@@H](CC(C)C)[C@@H](O)CC(=O)O)C(C)C)C(C)C [pepstatin A, reference compound] (Isovaleryl-VV[Sta]A[Sta]-OH)
amount of αS detected in the lysate ([1]; pepstatin A included in the cell lysis buffer): did not change the amount of αS detected in the lysate

B1: wild-type GBA: human acid-beta-glucocerebrosidase expressed from GBA-encoding cDNA plasmid under a CMV promoter (protein, UniProt P04062 40-536, looked up)
Lysosomal acid …: ARPCIPKSFGYSSVVCVCNATYCDSFDPPTFPALGTFSRYESTRSGRRMELSMGPIQANHTGTGLLLTLQPEQKFQKVKGFGGAMTDAAALNILALSPPAQNLLLKSYFSEEGIGYNIIRVPMASCDFSIRTYTYADTPDDFQLHNFSLPEEDTKLKIPLIHRALQLAQRPVSLLASPWTSPTWLKTNGAVNGKGSLKGQPGDIYHQTWARYFVKFLDAYAEHKLQFWAVTAENEPSAGLLSGYPFQCLGFTPEHQRDFIARDLGPTLANSTHHNVRLLMLDDQRLLLPHWAKVVLTDPEAAKYVHGIAVHWYLDFLAPAKATLGETHRLFPNTMLFASEACVGSKFWEQSVRLGSWDRGMQYSHSIITNLLYHVVGWTDWNLALNPEGGPNWVRNFVDSPIIVDITKDTFYKQPMFYHLGHFSKFIPEGSQRVGLVASQKNDLDAVALMHPDGSAVVVVLNRSSKDVPLTIKDPAVGFLETISPGYSIHTYLWRRQ
intracellular α-synuclein level, % of vector cDNA control levels [1]: 109.7+/−9.88%
α-synuclein protein level by Western blot ([2]; GBA cDNA 1.25, 2.5 or 5 μg + 0.5 μg SNCA cDNA, absence of co-transfected prosaposin): lowered the co-expressed α-synuclein protein levels at the largest amount of co-transfected GBA cDNA
α-synuclein protein level by Western blot ([2]; GBA cDNA low/medium/high with 5 μg Prosaposin-encoding cDNA): strong decrease in α-synuclein protein levels at even the lower concentrations

B2: N370S: human GBA mutant N370S, created by site-directed mutagenesis, disease-related (protein, UniProt P04062 40-536, looked up, variant N370S)
Lysosomal acid …: B1 Lysosomal acid … with N370S
intracellular α-synuclein level, % of vector cDNA control levels [1]: 121.1+/−4.98%

B3: D409H: human GBA mutant D409H, created by site-directed mutagenesis, disease-related (protein, UniProt P04062 40-536, looked up, variant D409H)
Lysosomal acid …: B1 Lysosomal acid … with D409H
intracellular α-synuclein level, % of vector cDNA control levels [1]: 269.4+/−56.6%

B4: L444P: human GBA mutant L444P, created by site-directed mutagenesis, disease-related (protein, UniProt P04062 40-536, looked up, variant L444P)
Lysosomal acid …: B1 Lysosomal acid … with L444P
intracellular α-synuclein level, % of vector cDNA control levels [1]: 172.7+/−23.02%

B5: E235A: human GBA mutant directed at the acid/base catalyst, catalytically inactive (protein, UniProt P04062 40-536, looked up, variant E235A)
Lysosomal acid …: B1 Lysosomal acid … with E235A
intracellular α-synuclein level, % of vector cDNA control levels [1]: 231.0+/−37.14%

B6: E340A: human GBA mutant directed at the nucleophile, catalytically inactive (protein, UniProt P04062 40-536, looked up, variant E340A)
Lysosomal acid …: B1 Lysosomal acid … with E340A
intracellular α-synuclein level, % of vector cDNA control levels [1]: 156.4+/−19.65%

B7: cathepsin F: human lysosomal cysteine protease expressed from CTSF plasmid under a CMV promoter (protein, UniProt Q9UBX1 271-484, looked up)
Cathepsin F: APPEWDWRSKGAVTKVKDQGMCGSCWAFSVTGNVEGQWFLNQGTLLSLSEQELLDCDKMDKACMGGLPSNAYSAIKNLGGLETEDDYSYQGHMQSCNFSAEKAKVYINDSVELSQNEQKLAAWLAKRGPISVAINAFGMQFYRHGISRPLRPLCSPWLIDHAVLLVGYGNRSDVPFWAIKNSWGTDWGEKGYYYLHRGSGACGVNTMASSAVVD
LDH signal (MES-syn cells): less than or equal to that of control vector transfected cells
intracellular α-synuclein level, % of control levels [3]: 51.7+/−14.1%
